These results are taken from PMC8115823.

pKd: −log10 of the molar value.

The target in experiment [1] is RNA polymerase (Escherichia coli) (UniProt P0A7Z4). The following applies: cited from earlier work.
For experiment [2], the target named is DNA topoisomerase I (TopoI) of Streptococcus pneumoniae (S. pneumoniae). Put plainly: SPR; TopoI immobilised on a new CM5 chip; RNAP holoenzyme 240 nM injected alone (no drug). (In general: Surface plasmon resonance follows binding to a sensor surface in real time, without labels.)
Experiment [3] has the same target. Put plainly: SPR; TopoI immobilised on a new CM5 chip; RNAP holoenzyme 240 nM incubated with 1 x MIC rifampicin (Rif).
Experiment [4] has the same target. Description: SPR; Biacore X100; about 3000 RU of TopoI immobilised on a CM5 chip by amine coupling; RNAP holoenzyme 7.5-240 nM flowed at 50 ul/min; 25 C; 20 mM Tris HCl pH 7.5, 100 mM NaCl, 10 mM MgCl2, 0.1 mM EDTA, 1 mM DTT, 0.005% Tween-20, 5% glycerol; regeneration with 1 M NaCl; kinetic fit; two independent assays.
Experiment [5] shares this target. Put plainly: SPR; TopoI immobilised on a new CM5 chip; RNAP holoenzyme 240 nM incubated with 1 x MIC seconeolitsine (SCN).

Sequence of DNA topoisomerase I (P06612 whole entry): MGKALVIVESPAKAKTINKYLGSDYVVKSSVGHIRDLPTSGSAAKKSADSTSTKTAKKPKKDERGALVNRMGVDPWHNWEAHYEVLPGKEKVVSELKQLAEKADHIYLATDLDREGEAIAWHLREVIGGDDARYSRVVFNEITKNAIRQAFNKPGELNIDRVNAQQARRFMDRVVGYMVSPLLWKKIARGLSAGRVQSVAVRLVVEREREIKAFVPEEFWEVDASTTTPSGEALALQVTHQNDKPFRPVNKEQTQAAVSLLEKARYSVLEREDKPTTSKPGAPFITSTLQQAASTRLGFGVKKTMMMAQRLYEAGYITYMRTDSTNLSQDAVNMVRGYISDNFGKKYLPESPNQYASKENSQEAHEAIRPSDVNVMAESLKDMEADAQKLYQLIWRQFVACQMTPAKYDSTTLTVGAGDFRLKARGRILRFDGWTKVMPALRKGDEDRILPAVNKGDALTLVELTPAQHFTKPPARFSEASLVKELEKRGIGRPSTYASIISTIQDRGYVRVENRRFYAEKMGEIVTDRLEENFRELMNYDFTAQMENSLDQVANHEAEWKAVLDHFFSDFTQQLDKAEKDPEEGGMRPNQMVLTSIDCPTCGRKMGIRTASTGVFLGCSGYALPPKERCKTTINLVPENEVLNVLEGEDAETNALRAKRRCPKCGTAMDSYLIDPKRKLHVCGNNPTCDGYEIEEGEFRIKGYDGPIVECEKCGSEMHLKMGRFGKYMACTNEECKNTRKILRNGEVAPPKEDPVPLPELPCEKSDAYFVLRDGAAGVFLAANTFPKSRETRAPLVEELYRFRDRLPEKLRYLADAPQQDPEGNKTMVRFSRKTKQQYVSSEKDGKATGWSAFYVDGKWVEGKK

“DNA topoisomerase I (from UniProt P06612)”: the negative logarithm of the Kd (pKd) in experiment [1] was 7.03.
As for “RNA polymerase (RNAP) holoenzyme of Streptococcus pneumoniae (from UniProt P66708 1-311; A0A0H2ZQA1 1-369) (complex)”, the SPR response (no drug) in experiment [2] was determined as 173 RU. The same substance had an SPR response with Rif in experiment [3] of 122 RU. In experiment [4], this substance showed a pKd of 7.57. This substance returned an SPR response with SCN in experiment [5] of 40.9 RU.

What is called pKd is the negative decadic logarithm of the Kd, by convention in mol/L.
